The target of the assay is T1, ECD of human DLL3 protein fused with his tag (Acro Bio, Cat. No. DL3-H52H4) (human, UniProt Q9NYJ7 27-492).
T1 construct: range 27-492; Bought protein; also called hDLL3-his; human DLL3-his protein; not shown: his tag
T1 sequence (looked up): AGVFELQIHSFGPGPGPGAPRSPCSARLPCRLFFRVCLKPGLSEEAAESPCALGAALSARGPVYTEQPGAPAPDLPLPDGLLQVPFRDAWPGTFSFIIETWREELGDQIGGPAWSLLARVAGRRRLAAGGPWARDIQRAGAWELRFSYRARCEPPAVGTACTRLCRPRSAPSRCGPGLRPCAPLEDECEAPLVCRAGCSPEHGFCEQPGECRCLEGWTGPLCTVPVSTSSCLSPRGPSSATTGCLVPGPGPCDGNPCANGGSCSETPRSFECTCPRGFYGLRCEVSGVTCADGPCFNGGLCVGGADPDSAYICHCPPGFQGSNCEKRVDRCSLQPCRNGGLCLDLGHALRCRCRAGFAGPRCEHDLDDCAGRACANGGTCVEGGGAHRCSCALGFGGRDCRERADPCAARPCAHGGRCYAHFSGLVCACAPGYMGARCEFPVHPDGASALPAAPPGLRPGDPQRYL
The assay is described as follows: ELISA, hDLL3-his coated. For orientation: An ELISA detects its analyte on a solid surface through an enzyme-linked reagent.

B1: 310P3C5-z7 humanized antibody (antibody, human IgG1, kappa, V domains shown)
VH: QVQLVQSGAEVKKPGASVKVSCKASGYTFTDFYMNWVRQAPGQGLEWIGDANPNNGGTTHNPRFKGRATLTVDTSTSTAYMELRSLRSDDTAVYYCARGGLPGDFDYWGQGTTVTVSS
VL: DIQMTQSPSSVSASVGDRVTITCKASEDIYNRLAWYQQKPGKAPKLLISGVTSLETGVPSRFSGSGSGTDFTLTISSLQPEDFATYYCQQYWSFPWTFGGGTKVEIKR
notes: HU-VH1-3 with HU-VL1-2; human IgG1
Turning to B1, the binding result is given as “binds”.

B2: 310P3C5-z2 humanized antibody (antibody, human IgG1, kappa, V domains shown)
VH: QVQLVQSGAEVKKPGASVKVSCKASGYTFTDFYMNWVRQAPGQGLEWIGDANPNNGGTTHNPRFKGRATMTTDTSTSTAYMELRSLRSDDTAVYYCARGGLPGDFDYWGQGTTVTVSS
VL: DIQMTQSPSSVSASVGDRVTITCKASEDIYNRLAWYQQKPGKAPKLLIYGVTSLETGVPSRFSGSGSGTDFTLTISSLQPEDFATYYCQQYWSFPWTFGGGTKVEIKR
notes: HU-VH1-2 with HU-VL1-1; human IgG1
For the molecule B2, the binding result is on record as “binds”.

B3: 310P3C5-z6 humanized antibody (antibody, human IgG1, kappa, V domains shown)
VH: QVQLVQSGAEVKKPGASVKVSCKASGYTFTDFYMNWVRQAPGQGLEWIGDANPNNGGTTHNPRFKGRATMTTDTSTSTAYMELRSLRSDDTAVYYCARGGLPGDFDYWGQGTTVTVSS
VL: DIQMTQSPSSVSASVGDRVTITCKASEDIYNRLAWYQQKPGKAPKLLISGVTSLETGVPSRFSGSGSGTDFTLTISSLQPEDFATYYCQQYWSFPWTFGGGTKVEIKR
notes: HU-VH1-2 with HU-VL1-2; human IgG1
As for B3, the binding result was “binds”.

B4: 310P3C5-z3 humanized antibody (antibody, human IgG1, kappa, V domains shown)
VH: QVQLVQSGAEVKKPGASVKVSCKASGYTFTDFYMNWVRQAPGQGLEWIGDANPNNGGTTHNPRFKGRATLTVDTSTSTAYMELRSLRSDDTAVYYCARGGLPGDFDYWGQGTTVTVSS
VL: DIQMTQSPSSVSASVGDRVTITCKASEDIYNRLAWYQQKPGKAPKLLIYGVTSLETGVPSRFSGSGSGTDFTLTISSLQPEDFATYYCQQYWSFPWTFGGGTKVEIKR
notes: HU-VH1-3 with HU-VL1-1; human IgG1
B4: the binding result is given as “binds”.

B5: 310P3C5-z5 humanized antibody (antibody, human IgG1, kappa, V domains shown)
VH: QVQLVQSGAEVKKPGASVKVSCKASGYTFTDFYMNWVRQAPGQGLEWMGDANPNNGGTTHNPRFKGRVTMTTDTSTSTAYMELRSLRSDDTAVYYCARGGLPGDFDYWGQGTTVTVSS
VL: DIQMTQSPSSVSASVGDRVTITCKASEDIYNRLAWYQQKPGKAPKLLISGVTSLETGVPSRFSGSGSGTDFTLTISSLQPEDFATYYCQQYWSFPWTFGGGTKVEIKR
notes: HU-VH1-1 with HU-VL1-2; human IgG1
For the molecule B5, the binding result was “binds”.

B6: 310P3C5-z1 humanized antibody (antibody, human IgG1, kappa, V domains shown)
VH: QVQLVQSGAEVKKPGASVKVSCKASGYTFTDFYMNWVRQAPGQGLEWMGDANPNNGGTTHNPRFKGRVTMTTDTSTSTAYMELRSLRSDDTAVYYCARGGLPGDFDYWGQGTTVTVSS
VL: DIQMTQSPSSVSASVGDRVTITCKASEDIYNRLAWYQQKPGKAPKLLIYGVTSLETGVPSRFSGSGSGTDFTLTISSLQPEDFATYYCQQYWSFPWTFGGGTKVEIKR
notes: HU-VH1-1 with HU-VL1-1; human IgG1
Consider B6, for which the binding result is “binds”.

B7: 310P3C5-z10 humanized antibody (antibody, human IgG1, kappa, V domains shown)
VH: QVQLVQSGAEVKKPGASVKVSCKASGYTFTDFYMNWVRQAPGQGLEWIGDANPNNGGTTHNPRFKGRATMTTDTSTSTAYMELRSLRSDDTAVYYCARGGLPGDFDYWGQGTTVTVSS
VL: DIQMTQSPSSVSASVGDRVTITCKASEDIYNRLAWYQQKPGKAPKLLISGVTSLETGVPSRFSGSGSGKDFTLTISSLQPEDFATYYCQQYWSFPWTFGGGTKVEIKR
notes: HU-VH1-2 with HU-VL1-3; human IgG1
In the case of B7, the binding result is “binds”.

B8: 310P3C5-z9 humanized antibody (antibody, human IgG1, kappa, V domains shown)
VH: QVQLVQSGAEVKKPGASVKVSCKASGYTFTDFYMNWVRQAPGQGLEWMGDANPNNGGTTHNPRFKGRVTMTTDTSTSTAYMELRSLRSDDTAVYYCARGGLPGDFDYWGQGTTVTVSS
VL: DIQMTQSPSSVSASVGDRVTITCKASEDIYNRLAWYQQKPGKAPKLLISGVTSLETGVPSRFSGSGSGKDFTLTISSLQPEDFATYYCQQYWSFPWTFGGGTKVEIKR
notes: HU-VH1-1 with HU-VL1-3; human IgG1
Regarding B8, the binding result was “binds”.

These data come from patent EP4803151A2 (Lepu Biopharma Co., Ltd., dated 2026).
